Experimental findings from patent WO2020003077A1 (dated 2020) are described below.

For assay [1], the target named is T1, human thrombin (human, UniProt P00734 314-363; P00734 364-622). The assay is described as follows: cell-based or functional assay.
Assay [2] concerns the target prothrombin (UniProt P00734 44-622). The assay is described as follows: ForteBio Octet, immobilized IgG.
Assay [3] has as its target T1, human thrombin. The assay can be described thus: standard ELISA binding assay. (In general: In an ELISA, binding on a coated surface is turned into a signal by an enzyme label.)

B1: wild-type anti-exosite 1 IgA antibody (antibody, V domains shown)
VH: QVQLIQSGSAVKKPGASVRVSCKVSGYTLTEAAIHWVRQAPGKGLEWMGGLDPQDGETVYAQQFKGRVTMTEDRSTDTAYMEVNNLRSEDTATYYCTTGDFSEFEPFSMDYFHFWGQGTVVTVAS
VL: EIVLTQSPATLSLSPGERATLSCRASQNVSSFLAWYQHKPGQAPRLLIYDASSRATDIPIRFSGSGSGTDFTLTISGLEPEDFAVYYCQQRRSWPPLTFGGGTKVEIKR
Regarding B1, in assay [1], the “thrombin hydrolysis of FVIII (feedback activation of thrombin via Xase complex), antibody effect” value worked out at 7 fold decrease and the “thrombin hydrolysis of platelet receptor PAR-1 peptide (activation of platelets), antibody effect” value came out at 15 fold decrease.

B2: synthetic anti-exosite 1 IgG antibody (antibody, V domains shown)
VH: QVQLIQSGSAVKKPGASVRVSCKVSGYTLTEAAIHWVRQAPGKGLEWMGGLDPQDGETVYAQQFKGRVTMTEDRSTDTAYMEVNNLRSEDTATYYCTTGDFSEFEPFSMDYFHFWGQGTVVTVAS
VL: EIVLTQSPATLSLSPGERATLSCRASQNVSSFLAWYQHKPGQAPRLLIYDASSRATDIPIRFSGSGSGTDFTLTISGLEPEDFAVYYCQQRRSWPPLTFGGGTKVEIKR
notes: also called synthetic IgG; anti-exosite IgG antibody
As for B2, in assay [2], the binding result was “no binding (tested: 500nM)”.

B3: synthetic anti-exosite 1 IgG S30A variant antibody (antibody, name in Kabat numbering, V domains shown)
VH: QVQLIQSGSAVKKPGASVRVSCKVSGYTLTEAAIHWVRQAPGKGLEWMGGLDPQDGETVYAQQFKGRVTMTEDRSTDTAYMEVNNLRSEDTATYYCTTGDFSEFEPFSMDYFHFWGQGTVVTVAS
VL: EIVLTQSPATLSLSPGERATLSCRASQNVASFLAWYQHKPGQAPRLLIYDASSRATDIPIRFSGSGSGTDFTLTISGLEPEDFAVYYCQQRRSWPPLTFGGGTKVEIKR
notes: also called ichorcumab S30A; ichorcumab
As for B3, the binding result in assay [3] is “binds”.
